Tested on: MS2 coat protein
Assay: apparent KD of MS2 coat protein; designed switch direction (-1 OFF switch, 1 ON switch): -1; higher = weaker reporter binding
Details: Eterna round: R98
Method: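 RNA-MaP: designed FMN/MS2 RNA switches (84 nt design region) are transcribed on-chip within common flanks and titrated with SNAP-549-labelled MS2 coat protein (about 1-3000 nM) in 100 mM Tris pH 7.5, 80 mM KCl, 4 mM MgCl2, without or with 200 uM FMN. Median apparent KD per design; activation ratio = KD,OFF / KD,ON.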

Sequence | apparent KD of MS2 coat protein (input ligand: FMN 200 uM) [µM] | apparent KD of MS2 coat protein (input ligand: none) [µM]
UCAUAAUAGAUCCUAUUUAUCUACAUGAGGAUCACCCAUGUGCAGGAUAUGCUAAAAUUAAAAUAGCAGAAGGGCAAUUUCAGC [JR_ExcNG3_Sub013] | 0.359 | 0.0943
UGGUAUAAGGGCAUUACACAUGAGGAUCACCCAUGUACGUUAGAGGAUAUGCAUUCCAGUCGAACGUAGAAGGUUAGAGAAGGG [Morebubblesahh#8abcdefghij] | 0.15 | 0.113
UUCUGUGCCCAAAGUUUAAGCACAUGAGGAUCACCCAUGUGAAAGGAUAUGUGGCAUGUAAUGUUAUAGAAGGUUCACAAUCAA [Esadi] | 0.0239 | 0.0158

Reference: the supplement of paper PMC9170038
